Data from patent US6417328B1, “Trail receptors, nucleic acids encoding the same, and methods of use thereof” (Thomas Jefferson Univeristy, priority 1997, dated 2002).
Residues, ends and D or L forms follow the SMILES beside them. *: point of attachment. Cbz = O=C(OCc1ccccc1)*; CH2F = FC*

Columns and labels:
Type in all cases: cell-based, human
[1] = test system: DR4-induced apoptosis in MCF7 cells; experiment: Inhibition of DR4-induced apoptosis in transfected MCF7 cells
Excerpt: (§1) For apoptosis assays the mammalian double expression vector pRSC (Akporiaye E. T. et al. (1997) BioTech. 22, 68) was used, which allows for expression of lacZ under the RSV promoter and the test cDNA (DR4, DR4A, DR5, DR5A, TRAIL-R3) under the CMV promoter. CrmA, FLAME-1, caspase-8-DN (C345A) or caspase-10-DN (C358A) (Alnemnri E. S. et al. (1997) J. Biol. Chem. 272, 18542-18545) were expressed using pcDNA3 (Invitrogen).
(§2) FIG. 3 illustrates that expression of DR5 but not TRAIL-R3 induces apoptosis in human cells. MCF7 (FIG. 3A) and 293 (FIG. 3B) cells were transfected with the indicated pRSC-lacZ constructs. Thirty hours after transfection cells were stained with Pgal and examined for morphological signs of apoptosis. The graphs show the percentage of round blue apoptotic cells (mean +SD) as a function of total blue cells under each condition (≧23).
(§3) MCF7 cells were transfected with DR4 or DR5 expression constructs in the presence of z-VAD-fmk (20 μM) or co-transfected with a four-fold excess of a CrmA, caspase-8-DN, caspase-10-DN or FLAME-1 construct or an empty vector. The data are represented as in FIGS. 3A and 3B.

[2] = test system: DR5-induced apoptosis in MCF7 cells; experiment: Inhibition of DR5-induced apoptosis in transfected MCF7 cells
Excerpt: as §1, §2, §3

apoptosis by TRAIL = experiment: Inhibition of apoptosis by TRAIL (FIG. 3F)
apoptosis by TNF-α = experiment: Inhibition of apoptosis by TNF-α (FIG. 3F)
MCF7 cells [3] = experiment: Apoptosis induction by transient expression in MCF7 cells; settings: pRSC-lacZ constructs, thirty hours after transfection (FIG. 3A)
Excerpt: as §1, §2

293 cells = experiment: Apoptosis induction by transient expression in 293 cells; settings: pRSC-lacZ constructs, thirty hours after transfection (FIG. 3B)
Excerpt: as §1, §2

MCF7 cells [4] = experiment: Blocking of TRAIL-induced apoptosis in MCF7 cells; settings: MCF7 cells transfected 36 h, then soluble TRAIL 250 ng/ml for 8 h (FIG. 3C)
Description: Cells were stained 8 hours later with propidium iodide and the nuclei were examined by fluorescence microscopy.
MCF7 cells were transfected with TRAIL-R3 or vector alone for 36 h, then treated with soluble TRAIL (250 ng/ml) for 8 h. The data are represented as in FIGS. 3A and 3B, after subtracting the background killing (12-15%) as a result of transfection.

[5] = MCF7 cells co-transfected with four-fold excess of inhibitor construct (FIG. 3D, 3E)

In the case of `COC(=O)C[C@H](NC(=O)[C@H](C)NC(=O)[C@@H](NC(=O)OCc1ccccc1)C(C)C)C(=O)CF` [z-VAD-fmk, reference compound] (Cbz-Val-Ala-Asp(OMe)-CH2F), the “Inhibition of DR4-induced apoptosis” value ([1]; MCF7 cells transfected with DR4 construct in the presence of inhibitor 20 μM (FIG. 3D)) is reported as “inhibited” and the “Inhibition of DR5-induced apoptosis” value ([2]; MCF7 cells transfected with DR5 construct in the presence of inhibitor 20 μM (FIG. 3D)) is reported as “efficiently blocked”.

In the case of “DR5s: alternatively spliced isoform of DR5, 350 amino acids (SEQ ID NO:6), truncated death domain”, the “Inhibition of apoptosis by TRAIL” value (apoptosis by TRAIL) is reported as “substantially inhibits” and the “Inhibition of apoptosis by TNF-α” value (apoptosis by TNF-α) is reported as “not”.

B1: DR5: human TRAIL receptor protein of 411 amino acids (SEQ ID NO:2) with cytoplasmic death domain (protein, listed as Homo sapiens)
chain: MEQRGQNAPAASGARKRHGPGPREARGARPGLRVPKTLVLVVAAVLLLVSAESALITQQDLAPQQRVAPQQKRSSPSEGLCPPGHHISEDGRDCISCKYGQDYSTHWNDLLFCLRCTRCDSGEVELSPCTTTRNTVCQCEEGTFREEDSPEMCRKCRTGCPRGMVKVGDCTPWSDIECVHKESGIIIGVTVAAVVLIVAVFVCKSLLWKKVLPYLKGICSGGGGDPERVDRSSQRPGAEDNVLNEIVSILQPTQVPEQEMEVQEPAEPTGVNMLSPGESEHLLEPAEAERSQRRRLLVPANEGDPTETLRQCFDDFADLVPFDSWEPLMRKLGLMDNEIKVAKAEAAGHRDTLYTMLIKWVNKTGRDASVHTLLDALETLGERLAKQKIEDHLLSSGKFMYLEGNADSAMS
For B1, the “Induction of apoptosis by transient expression” value (shortened to “Induction of apoptosis”) (MCF7 cells [3]) was “triggers apoptosis” and the “Induction of apoptosis” value (293 cells) was “triggers apoptosis”.

B2: caspase-8-DN: dominant negative inhibitor caspase-8 (C345A), expressed using pcDNA3 (protein, UniProt Q14790 1-479, looked up, variant C345A)
chain: MDFSRNLYDIGEQLDSEDLASLKFLSLDYIPQRKQEPIKDALMLFQRLQEKRMLEESNLSFLKELLFRINRLDLLITYLNTRKEEMERELQTPGRAQISAYRVMLYQISEEVSRSELRSFKFLLQEEISKCKLDDDMNLLDIFIEMEKRVILGEGKLDILKRVCAQINKSLLKIINDYEEFSKERSSSLEGSPDEFSNGEELCGVMTISDSPREQDSESQTLDKVYQMKSKPRGYCLIINNHNFAKAREKVPKLHSIRDRNGTHLDAGALTTTFEELHFEIKPHDDCTVEQIYEILKIYQLMDHSNMDCFICCILSHGDKGIIYGTDGQEAPIYELTSQFTGLKAPSLAGKPKVFFIQACQGDNYQKGIPVETDSEEQPYLEMDLSSPQTRYIPDEADFLLGMATVNNCVSYRNPAEGTWYIQSLCQSLRERCPRGDDILTILTEVNYEVSNKDDKKNMGKQMPQPTFTLRKKLVFPSD
For B2, the “Inhibition of DR4-induced apoptosis” value [1, 5] was “significantly inhibited” and the “Inhibition of DR5-induced apoptosis” value [2, 5] was “significantly inhibited”.

B3: TRAIL-R3: human TRAIL receptor protein of 299 amino acids (SEQ ID NO:4) without cytoplasmic domain (protein, listed as Homo sapiens)
chain: MQGVKERFLPLGNSGDRAPRPPDGRGRVRPRTQDGVGNHTMARIPKTLKFVVVIVAVLLPVLAYSATTARQEEVPQQTVAPQQQRHSFKGEECPAGSHRSEHTGACNPCTEGVDYTNASNNEPSCFPCTVCKSDQKHKSSCTMTRDTVCQCKEGTFRNENSPEMCRKCSRCPSGEVQVSNCTSWDDIQCVEEFGANATVETPAAEETMNTSPGTPAPAAEETMNTSPGTPAPAAEETMTTSPGTPAPAAEETMTTSPGTPAPAAEETMTTSPGTPASSHYLSCTIVGIIVLIVLLIVFV
With B3 the “Induction of apoptosis” value (MCF7 cells [3]) was “incapable of inducing apoptosis”, the “Blocking of TRAIL-induced apoptosis by transient (ectopic) expression” value (MCF7 cells [4]) was “significantly blocked” and the “Induction of apoptosis” value (293 cells) was “incapable of inducing apoptosis”.
